Drawing on patent publication CN114423789A (ZHEJIANG JIANMAI PHARMACEUTICAL CO LTD, dated 2022), this text covers EC50 for two molecules.

In assay [1] the target is T1, recombinant human mesothelin (full-length extracellular domain) (human, UniProt Q13421 296-580, limits assumed).
T1 construct: extracellular domain; Bought protein coated on ELISA plates at 50 ng per well; also called 重组人间皮素; 人间皮素(MSLN)蛋白
The assay is described as follows: ELISA, recombinant human mesothelin coated at 50 ng/well, Fab detected with HRP anti-FLAG.

The target of assay [2] is T1, recombinant human mesothelin …. The assay is described as follows: ELISA, recombinant human mesothelin coated at 50 ng/well, fit to a Langmuir isotherm. (In general: In an ELISA, binding on a coated surface is turned into a signal by an enzyme label.)

One may read the EC50 as the concentration at which the effect is half-maximal.

T1 sequence (Q13421 other isoform, or with tags, fused parts or gaps limits assumed): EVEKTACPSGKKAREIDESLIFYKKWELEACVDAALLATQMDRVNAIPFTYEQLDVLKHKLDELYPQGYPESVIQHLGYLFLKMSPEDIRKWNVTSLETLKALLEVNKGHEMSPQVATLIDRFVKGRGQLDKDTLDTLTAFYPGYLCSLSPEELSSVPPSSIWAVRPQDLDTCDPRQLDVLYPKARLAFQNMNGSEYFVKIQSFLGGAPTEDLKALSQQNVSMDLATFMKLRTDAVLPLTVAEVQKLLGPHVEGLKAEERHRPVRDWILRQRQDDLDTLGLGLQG

B1: M10 Fab (Fab, V domains shown)
VH: QLVETGGGLVQPGRSLRLSCAASGFTFDDYAMHWVRQAPGKGLEWVSGISWNSGSIGYADSVKGRFTISRDNAKNSLYLQMNSLRAEDTAVYYCARDSGSSGWYGYFQHWGQGTLVTVSS
VL: SYVLTQPPSVSVSPGQTARITCSGDALPKQYAFWYQQKPGQAPVLVIYKDSERPSGIPERFSGSSSGTTVTLTISGVQAEDEADYYCQSADSSATSVIFGGGTKLTVLG
notes: also called Fab克隆M10
As for B1, the 50% effective concentration (EC50) in assay [1] amounted to 21 nM.

B2: M10 mAb (anti-human mesothelin monoclonal antibody IgG1) (antibody, V domains shown)
VH: B1 VH
VL: B1 VL
notes: Full human IgG1: the heavy-chain Fd of M10 Fab fused to human IgG1 Fc, about 150 kDa non-reduced; also called 抗间皮素M10 mAb; 抗间皮素单克隆抗体
As for B2, the EC50 in assay [2] worked out at 0.2 nM.
